From the nanobody polyreactivity screen of Harvey et al. (2022)

Assay: yeast display, Sf9 membrane polyspecificity reagent, FACS + sequencing; frameworks hold sequencing errors
How it was run: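 Genes from sorted yeast were amplified by colony PCR, read by MiSeq 2 × 250 sequencing and filtered on CDR length. These cells carried a synthetic nanobody library in Saccharomyces cerevisiae BJ5465 and were sorted by FACS into low and high (top ~1%) gates on anti-HA and streptavidin fluorescence. Polyreactivity is labelled according to the gate of origin.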
In the case of “QDQLVESGGGLVQAGGSLRLSCAASGSTFSFYAMGWTRQAPGKERELVAAISRSGGSTFYADSVKGRFTISRDNAKNTVYLQMNSLKPEDSAVYYCAAYGGLQSRYYYWGQGTQVTVSS”, the “polyreactivity (PSR sort gate)” value is reported as “high polyreactivity”. In the case of “QDHLVDSGGGLVQAGGSLRLSCDASGRIFRWYTMGWYRQAPGKERELVATITSSGITSYADSVKGRFTISRDNAKNTDYLQMNSLKPEDTAVYYCAADHYYYIHGYDYWGQGTQVTVSS”, the “polyreactivity (PSR sort gate)” value is reported as “high polyreactivity”. In the case of “QVQLVESGGGLVQAGGSLRLSCAASGTTFGYYAMGSYRQPPGKDREFVAAISSSGGSTYYPDSVKGRFTISRDNAKNTVYLQMNSLKPEDTAVYYCARVGFPGFYWGQGTEVTVSS”, the “polyreactivity (PSR sort gate)” value is reported as “high polyreactivity”. With “QVQLVESGGGLFQAGGSLRLSCAASGRTFVHNAMGWYRQAPGKERDLVAVITSGARTTYADSVKGRFTISRDNAKNTVYLQMNSLKPEDTAVYYFAAGTFSVIFSYKYRHYYYWGQGTQVTVSS” the “polyreactivity (PSR sort gate)” value was “low polyreactivity”. For “QVQLVESGGGLVQAGGSLRLSCAASGSTFSSSAMGWYRQAAGKERELVAAITSSGGSPYYADSVKGRLTISRDNAKNTVYLQMNSLKPEDTAVYYCAAADVIFWLYYYWGQGTQLTVSS”, the “polyreactivity (PSR sort gate)” value was “low polyreactivity”. In the case of “QVHLVESGGGLVQAGGSLRLSCAASGFTFYYYAMGWYRQAPGKERELVAAISDSGGITYYADSVKGRFTISRDNAKNTVYLQMNSLKPEDTAVYYCAADFATPGPEYDYWGQGTQVTVSS”, the “polyreactivity (PSR sort gate)” value is reported as “low polyreactivity”. In the case of “QVQLVESGAGLVQAGGSLRLCCAASGRTYRLYAMGWYRQAPGKERELVAAITRGGRTNYADSVKGRFTISRDNAINTVYLQMYSLKPEDIAVYYCAARYVERHTDYYYWGQGTQVTVSS”, the “polyreactivity (PSR sort gate)” value is reported as “low polyreactivity”. For “QVQLVESGGGLVQAGGSLRLSCAASGRIFGVYAMGWYRQAPGKERELVADITRGGGSTYYADSVKGRFTISRDNAKNTVYLQMNSLKPEDTAVYYCAARYRFQRGGYYYWGQGTQVTVSS”, the “polyreactivity (PSR sort gate)” value was “high polyreactivity”. For “QVQLVESGGGLVQAGGSLRLSCAASGLTFYYYAMGWYRQAPGKEREFVAAITRSGTNTYYADSVKGRFTISRDTAKNTVYLQMNSLKPEDTAVYYCAKTGYSFRVFRKYDWGQGTQVTVSS”, the “polyreactivity (PSR sort gate)” value was “high polyreactivity”. With “QVHLVESGGGLVQAGGSHRLSCAASGSISFIYAMGWYIQAPGKERELVAAITSSGGSTYYADSVKGRFTISRDNAQNTVYLQMNSLKPDDTAVYYCAAERWTSRHYSGNDYWGQGTQVTVSS” the “polyreactivity (PSR sort gate)” value was “low polyreactivity”. In the case of “QVQLVESGGGLVQAGGSLRLSCAATGFTFTGNAMGWYRQAPGKQRELVAAINTGTGGSTYYADSVKGRFTISRDNAKNTVYLQMNSLKPVDTAVYYPIGVGGDYDYWGQGTQVTVSS”, the “polyreactivity (PSR sort gate)” value is reported as “low polyreactivity”. In the case of “QVQLVESGGGLVQAGGSLRLSCAASGFTFSPNAMGWYRQAPGKERELVAAIDWNGGSTYYADSVKGRFTISRDNAKNTVYLQMNSLKPEDTAVYYCNADWVYWQYLTSFVTFDYWGQGTQVTVSS”, the “polyreactivity (PSR sort gate)” value is reported as “low polyreactivity”. For “KVQLVESGGGLVQAGGSLRLSCPASGSIFTSYAMGWYRQAPGKERELVAAISSGGSTNYADSVKGRFTISRDNAKNTVYLQMNSLKPEDTAVYYCAKGSRKSGYKYYHGRVWFGYWGQGTQVTVSS”, the “polyreactivity (PSR sort gate)” value was “high polyreactivity”. In the case of “QVQLVESGGGLVQAGGSLRLSCAASGSTFRYNAMGWYRQAPGKERELVAAISSGSSTNYADSVKGRFTISRDNEKNTVYFQMNSLKPVDTAVYYCAAQPGYYDDFYYWGQGTQVTVSA”, the “polyreactivity (PSR sort gate)” value is reported as “low polyreactivity”. With “QVQLVESRGGLVQAGGSLRLSCAASGSIFYVYAMGWYRQAPAKERELVAAITSSGTTNYADSVKGRFTIPRDNAKNTVYLQMNSLKPEDTAVYYCAADPDSGQVPFDYWGQGTQVTVSS” the “polyreactivity (PSR sort gate)” value was “low polyreactivity”. In the case of “QVQLVESGGGLVQAGGSLRLSCDASGSTSYLYAMGCYRQAPGKARELVAAIPWRSVRTSYADSVKGRFTFSRDNAKNTVYLQMNSLKPEDTAVYYCNAVGYTRGRSTYDYWGQGTQVTVSS”, the “polyreactivity (PSR sort gate)” value is reported as “high polyreactivity”. With “QVQLVESGGGLVQAGGSLSLSCAASGFNSSHYAMGWYRQAPGKERELVATISSGGSTYADSVKGRFTISRDNAKNTVYLQMNSLKPEDTAVYYCDKGVRYKQYHIMYYWGQGTQVTVSS” the “polyreactivity (PSR sort gate)” value was “high polyreactivity”. For “QVQLVESGGGLVQAGGSLRLSCAASGGTFRPYAMGWYRQAPGKERELVATIRSSGGRTYYADSVKGRFTISRDNAKNTVYLQMNSLKPDDTAVYYCAKRAQTYYGYDYWGQGTQVTVSS”, the “polyreactivity (PSR sort gate)” value was “high polyreactivity”. In the case of “QVQLVESGGGLGQAGGSLRLSCAASGFTFVYYAMGWYRPAPGKERELVAAISSRGGSTNYADSVKGRFTISRDNAKNTVYLQMNSLKPEDTAVYYCATYFSIQRRGDYWGQGTQVTVSS”, the “polyreactivity (PSR sort gate)” value is reported as “high polyreactivity”. For “QVQLVESGGGLVQAGGSLRLSCAASGSTFYPNAMGWYRQAPGKERELVAAISRGTRTKYADSVKGRFTISRDNAKNTVYLQMNSLKPEDTAVYYCAADTGTGLDWGQGTQVTVSS”, the “polyreactivity (PSR sort gate)” value was “high polyreactivity”. With “QVHLQESGDGLVQPVGSQRLSCAASGYISGNYYMGWYRQAPGTERELVAGIDAFGSSTNYADCVKGRFTISRYNAKNSVYLQMYRLKPEDTAVYYCAAPPDGDRLFSYWGQGTQVTVSS” the “polyreactivity (PSR sort gate)” value was “low polyreactivity”. In the case of “QVQLVESGGGLVQAGGSLRLSCAASGRTFLRYAMGWYRQAPGKERELVAAISVSGGNTYYADSVKGRFTISRDNAKNTVYLQMNSLKPEDTAVYYCNKARLAAVFSYPYGYWGQVTQVTVSS”, the “polyreactivity (PSR sort gate)” value is reported as “low polyreactivity”. For “QVQLVESGAGLVQAGGSLRLSCAASGRTFFRYVMGWYRQAPGKERELVAAIRSGGSTNYADSVKGRFTISLDNAKNTVYLQMNSLKPEDTAVYYCAARKWHSAYDYWVQGTQVTVSS”, the “polyreactivity (PSR sort gate)” value was “high polyreactivity”. For “QVQLVESGGGLVQAGGSLRLSCAASGRIFKGNAMGWYRQAPGKEREFVADISQRGGSTYYADSVKGRFTISRDNAKNTVYLQMNSLKPEDTAVYYCAAVRKSVGVKYDYWGQGTQVTVSS”, the “polyreactivity (PSR sort gate)” value was “high polyreactivity”. With “QVQLVESGGGLVQAGGSLRLSCAASGFTIRYYAMGWYRQAPGKERELVAAISSSGGSTYYADSVKGRFTISRDNAKNTVYLQMNSLKTEDTAVYYCAAYYHGRMDYWGQGTQVTVSS” the “polyreactivity (PSR sort gate)” value was “high polyreactivity”. In the case of “QVQLVESGGGLVQAGGSLRLSCAASGLTFTNYAMGWYRQAPGKERELVAAISRSGARTYYADSVKGRFTISRDNAKNTVYLQMNSLKPEDTAVYYCATRYLSRGVYNYDYWGQGTQVTVSS”, the “polyreactivity (PSR sort gate)” value is reported as “high polyreactivity”. In the case of “QVQLVESGGGLVQAGGSLRLSCAASGSIFSYYAMGWNRQAHGKERELVASITRGGSTYYADSVKGRFTISRDNAKNTVYLQMNSLKPEDSAVYYCAAAARYYSRYDFPNNYWGQVTQVTVSS”, the “polyreactivity (PSR sort gate)” value is reported as “low polyreactivity”. For “QVQLVESGGGLFQAGGSLRLSCAPSGRISNKYAMGWYRQAPGKERELVAAISYSGGTTYYADSVKGRFTISRDNAKNTVYLQMNSLKPEDTAGYYCAREWTKGYGYYWGYYWGQGTQVTASS”, the “polyreactivity (PSR sort gate)” value was “low polyreactivity”. For “QVHLVESGGGLVQAGGSLRLSCAAYGRNFQYNAMGWDRQAPGKEREFVASISGSGGRTYYADSVKGRFTISRDNAKNTVYLQMNSLKPEDTAVYYCNASLLFPLLYGPESGEFDYWGQGSQVTVSS”, the “polyreactivity (PSR sort gate)” value was “low polyreactivity”. With “QVQLVESGGGLVQAGGSLRLSCAASGSTFIQYAMGWYRQAPGKERELVATIRWIGGSTYYADSVKGRFTISRDNAKNTVYLQMNSLKPEDTAVYYCAAGYEYVENGVDWYEYDYWGQGTQVTVSS” the “polyreactivity (PSR sort gate)” value was “low polyreactivity”. With “QVQLVESGGGLVQAGGSLRLRCAASGSTFGYNAMGWYRQAPGKESELVAAISSSGGTTYYADSVKARFTISRDNAKNTVYLQMNSLKPEDTAVYYCAADHTVGRYEFEFWGQGTQVTVSS” the “polyreactivity (PSR sort gate)” value was “low polyreactivity”. For “QVQLVESGGGLVQAGGSLRLSCAASGITFVYYAMGWYRQAPGKERELVAAITSDGGSTYYADSVKGRFTISRDNAKNTVYLQMNSLKPEDTAVYYCAAEWTSWSWWYGWYEFDYWGQGTQVTVSS”, the “polyreactivity (PSR sort gate)” value was “high polyreactivity”. In the case of “QVQLVESGGGLVQAGGSLSFSCAASGSIFDYNAMGWYRQAPGKERELVADIRGIGGSTYYADSVKGRFTISRDNAKNTFYLQMNSLIPEDTAVYYCNTSTLGGYYWGQGTQVTVSS”, the “polyreactivity (PSR sort gate)” value is reported as “low polyreactivity”. In the case of “QVQLVESGGGLVQAGGSLRLSSASTGLIFRWYEMGRYRQPPGKETELVAAISRRGGTTNYADSVKGRFTISRDIAKITVYLQMNSLKPEDTAVYYCAADYQSVGVAEYEYWGQGTQVTVSS”, the “polyreactivity (PSR sort gate)” value is reported as “high polyreactivity”. In the case of “QVQLVESGGGLVQAGGSLRLSCAASGFTFAGYAMGWYRLAPGKVRELVAAISWRGGSTYYADSVKGRFTISRDNAKNTVYLQMNSLKPEDTAVYYCAAASRKRTSREPLDYWGQGTQVTVSS”, the “polyreactivity (PSR sort gate)” value is reported as “high polyreactivity”. In the case of “QVQLVESGGGLVQAGGSLRLSCAASGRTFWKYAMGWYRQAPGKERELVAAITASGARTYYADSVKGRFTISRDNAKNTVYLQMNSLKPEDTAVYYCNAGSVSDRQMDYWGQGTEVTVSS”, the “polyreactivity (PSR sort gate)” value is reported as “low polyreactivity”. For “QVQLVESGGGLVQAGGSLRLSCAASGSTFDWYVMGWYRKAPGKERELVAAINQGSGSTYYADSVKGRFTISRDNAKNTVYLQMNSLKPEDTAVYYCAADRYGAGYLYWPYDYWGQGTQVTVSS”, the “polyreactivity (PSR sort gate)” value was “low polyreactivity”. With “QVQLVESGGGLVQAGGSLRLSCAASGRTFGGYTMGWYRQAPGKERELVAAITGSGSNTYYADSVKGRFTISRDNAKNTVYLQMNSLKPEDTAVYYCAAPYSYRTWYPYGYWGQGTQVTVSS” the “polyreactivity (PSR sort gate)” value was “high polyreactivity”. For “QVQLVESGVGLVQAGGTLRLSCAASGSIFDWNVIGWYRQTPGKERELVASISESTDSTYYADSVKGRFTISRDNAKNTVYFQMNSLKPEDTAVYYCATAYPEWAVWGYDYWGQGTQVTLSS”, the “polyreactivity (PSR sort gate)” value was “low polyreactivity”. For “QFQLVESGGGLVQAGGILRLSCAASGSIFYHNAMGWSRQAPGKERELVAAITGSGGSTYYADSVKGRFTISRDNAKNTVYLQMNSLKPEDTAVYYCAADGYTKWWISWGYDYWGQGTQVTVSS”, the “polyreactivity (PSR sort gate)” value was “low polyreactivity”. In the case of “QVQLVESRGGLVQAGGSLRLSCAASGFTLPANGMGWYRQAPGKERELVAAISFIAGSTYYADSVKGRFTISRDNEKNTVYFQMNSLKPEDTAVYYSATQFPPSSIYDYWGQGTQVTVSS”, the “polyreactivity (PSR sort gate)” value is reported as “low polyreactivity”.
